{
  "source": "paper PMC8828546",
  "about": "“OsWRKY53 Promotes Abscisic Acid Accumulation to Accelerate Leaf Senescence and Inhibit Seed Germination by Downregulating Abscisic Acid Catabolic Genes in Rice”",
  "molecular_target": "OsWRKY53 (Oryza sativa (rice), UniProt A7BEY7 1-487)",
  "sequence (A7BEY7 entry or part of it)": "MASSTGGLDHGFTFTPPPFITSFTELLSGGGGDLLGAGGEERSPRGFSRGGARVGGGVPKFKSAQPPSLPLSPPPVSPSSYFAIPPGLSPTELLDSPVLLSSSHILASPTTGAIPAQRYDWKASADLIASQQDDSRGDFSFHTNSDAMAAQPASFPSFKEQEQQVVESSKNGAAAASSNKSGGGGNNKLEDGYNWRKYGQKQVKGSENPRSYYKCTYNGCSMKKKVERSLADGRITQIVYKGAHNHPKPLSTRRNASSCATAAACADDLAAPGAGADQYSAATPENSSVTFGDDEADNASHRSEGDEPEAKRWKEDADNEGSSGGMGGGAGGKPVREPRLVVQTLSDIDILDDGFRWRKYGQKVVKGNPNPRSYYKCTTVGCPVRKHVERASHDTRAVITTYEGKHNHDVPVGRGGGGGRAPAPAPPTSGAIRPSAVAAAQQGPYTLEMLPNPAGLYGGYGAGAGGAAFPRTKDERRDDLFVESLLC",
  "assay": "EMSA; unlabeled probe competitor at 10-, 50-, 100-fold also run (outcome only in gel); EMSA: room temperature, 20 min; binding buffer, salt and pH not stated; 6% native acrylamide gel, 0.5x TBE, 4 C, 110 V, 2 h",
  "details": "protein: recombinant; tags: His; TF (pCold-TF vector); label: 5'-FAM on one strand; annealed with complementary oligo",
  "data": [
    {"binder": "OsABA8ox1 promoter W-box probe (dsDNA) DNA 1: ACAGGTTGACCTTTGCAT DNA 2: ATGCAAAGGTCAACCTGT", "values": [
      {"measurement": "binding result", "result": "binds"}
    ]}
  ]
}
